According to patent US20190150137A1:

How the values were obtained:
[1] = molecular target: GST-Fg γ^1-17 (GST fusion protein containing the native human Fg γ 395-411 sequence) (human); test: ELISA-type assay, ligand coated, apparent Kd
[2] = molecular target: GST-Fg g^1-17D16A (GST fusion of the Fg γ 395-411 sequence with D16A) (human); test: solid-phase binding assay, wells coated with GST-γ1-17 D16A, anti-His detection, A405
[3] = molecular target: ClfAD327C/K541C (ClfA(229-545)D327C/K541C, disulfide-stabilized closed conformation) (Staphylococcus aureus strain Newman) (UniProt Q2G015); test: ITC, peptide titrated into ClfAD327C/K541C; panel assigned by the legend paragraph 25 (bovine Fg γ peptide has the lower affinity)

ClfA229-545 (recombinant His-tagged N2N3 segment of Staphylococcus aureus clumping factor A) (from UniProt Q2G015 229-545)
Kd [1]: 0.222 µM | EC50 (read off the curve) [2]: 0.2 µM

ClfAD327C/K541C (ClfA(229-545)D327C/K541C, disulfide-stabilized closed conformation) (from UniProt Q2G015 229-545)
Kd [1]: 0.02 µM

bovine Fg γ peptide (peptide representing the bovine Fg γ chain sequence) (from UniProt P12799 420-436)
Kd [3]: 20.9 µM
